According to US20240360227A1:

Columns and labels:
[1] = biological target: Recombinant human his-tagged IGF R extracellular domain protein (human) (UniProt P08069); assay: SPR, Ab captured via anti-huIgG Fc, pH 7.4
[2] = biological target: Recombinant human his-tagged IGF R extracellular domain protein (human) (UniProt P08069); assay: SPR, Ab captured via anti-huIgG Fc, dissociation at pH 6

Binder | Kd [1] [nM] | koff [1] [s⁻¹] | kon [1] [M⁻¹ s⁻¹] | Kd [2] [nM] | koff [2] [s⁻¹] | kon [2] [M⁻¹ s⁻¹]
VRDN-02100 (antibody, human IgG1, kappa, V domains shown) VH: QVQLQESGPGLVKPSETLSLTCTVSGYSITGGYLWNWIRQPPGKGLEWIGYISYDGTNNYKPSLKDRVTISRDTSKNQFSLKLSSVTAADTAVYYCARYGRVFFDYWGQGTLVTVSS VL: DIVMTQSPLSLPVTPGEPASISCRSSQSIVHSNGNTYLQWYLQKPGQSPQLLIYKVSNRLYGVPDRFSGSGSGTDFTLKISRVEAEDVGVYYCFQGSHVPWTFGQGTKVEIKR | 0.456 | 4.85e-05 | 106000 | 1.05 | 9.16e-05 | 86800
VRDN-02021 (antibody, V domains shown) VH: QVQLQESGPGLVKPSETLSLTCTVSGYSITGGYLWNWIRQPPGKGLEWIGYISYDGTNNYKPSLKDRVTISRDTSKNQFSLKLSSVTAADTAVYYCARHGRVFFDYWGQGTLVTVSS VL: DIVMTQSPLSLPVTPGEPASISCRSSQSIVHSNGNTYLQWYLQKPGQSPQLLIYKVSNRLYGVPDRFSGSGSGTDFTLKISRVEAEDVGVYYCFQGSHVPWTFGQGTKVEIK | 0.868 | 5.84e-05 | 67300 | 1.38 | 0.000137 | 99200
VRDN-02019 (antibody, V domains shown) VH: QVQLQESGPGLVKPSETLSLTCTVSGYSITGGYLWNWIRQPPGKGLEWIGYISYDGTHNYKPSLKDRVTISRDTSKNQFSLKLSSVTAADTAVYYCARYGRVFFDYWGQGTLVTVSS VL: DIVMTQSPLSLPVTPGEPASISCRSSQSIVHSNGNTYLQWYLQKPGQSPQLLIYKVSNRLYGVPDRFSGSGSGTDFTLKISRVEAEDVGVYYCFQGSHVPWTFGQGTKVEIK | 0.549 | 5.53e-05 | 101000 | 1.18 | 0.000101 | 85800
VRDN-02017 (antibody, V domains shown) VH: QVQLQESGPGLVKPSETLSLTCTVSGYSITGGYLWNWIRQPPGKGLEWIGYISYDHTNNYKPSLKDRVTISRDTSKNQFSLKLSSVTAADTAVYYCARYGRVFFDYWGQGTLVTVSS VL: DIVMTQSPLSLPVTPGEPASISCRSSQSIVHSNGNTYLQWYLQKPGQSPQLLIYKVSNRLYGVPDRFSGSGSGTDFTLKISRVEAEDVGVYYCFQGSHVPWTFGQGTKVEIK | 1.22 | 0.000118 | 97000 | 1.14 | 0.00011 | 96000
VRDN-02022 (antibody, V domains shown) VH: QVQLQESGPGLVKPSETLSLTCTVSGYSITGGYLWNWIRQPPGKGLEWIGYISYDGTNNYKPSLKDRVTISRDTSKNQFSLKLSSVTAADTAVYYCARYHRVFFDYWGQGTLVTVSS VL: DIVMTQSPLSLPVTPGEPASISCRSSQSIVHSNGNTYLQWYLQKPGQSPQLLIYKVSNRLYGVPDRFSGSGSGTDFTLKISRVEAEDVGVYYCFQGSHVPWTFGQGTKVEIK | 8.23 | 0.000775 | 94100 |  |  | 
VRDN-02018 (antibody, V domains shown) VH: QVQLQESGPGLVKPSETLSLTCTVSGYSITGGYLWNWIRQPPGKGLEWIGYISYDGHNNYKPSLKDRVTISRDTSKNQFSLKLSSVTAADTAVYYCARYGRVFFDYWGQGTLVTVSS VL: DIVMTQSPLSLPVTPGEPASISCRSSQSIVHSNGNTYLQWYLQKPGQSPQLLIYKVSNRLYGVPDRFSGSGSGTDFTLKISRVEAEDVGVYYCFQGSHVPWTFGQGTKVEIK | 0.734 | 7.79e-05 | 106000 | 1.26 | 0.000108 | 85400
VRDN-02023 (antibody, V domains shown) VH: QVQLQESGPGLVKPSETLSLTCTVSGYSITGGYLWNWIRQPPGKGLEWIGYISYDGTNNYKPSLKDRVTISRDTSKNQFSLKLSSVTAADTAVYYCARYGHVFFDYWGQGTLVTVSS VL: DIVMTQSPLSLPVTPGEPASISCRSSQSIVHSNGNTYLQWYLQKPGQSPQLLIYKVSNRLYGVPDRFSGSGSGTDFTLKISRVEAEDVGVYYCFQGSHVPWTFGQGTKVEIK | 4.4 | 0.00187 | 426000 | 1.23 | 8.97e-05 | 72700
VRDN-02059 (antibody, V domains shown) VH: QVQLQESGPGLVKPSETLSLTCTVSGYSITGGYLWNWIRQPPGKGLEWIGYIHYDGTNNYKPSLKDRVTISRDTSKNQFSLKLSSVTAADTAVYYCARYGRVFFDYWGQGTLVTVSS VL: DIVMTQSPLSLPVTPGEPASISCRSHQSIVHSNGNTYLQWYLQKPGQSPQLLIYKVSNRLYGVPDRFSGSGSGTDFTLKISRVEAEDVGVYYCFQGSHVPWTFGQGTKVEIK |  |  |  | 0.228 | 4.43e-05 | 194000
VRDN-02024 (antibody, V domains shown) VH: QVQLQESGPGLVKPSETLSLTCTVSGYSITGGYLWNWIRQPPGKGLEWIGYISYDGTNNYKPSLKDRVTISRDTSKNQFSLKLSSVTAADTAVYYCARYGRHFFDYWGQGTLVTVSS VL: DIVMTQSPLSLPVTPGEPASISCRSSQSIVHSNGNTYLQWYLQKPGQSPQLLIYKVSNRLYGVPDRFSGSGSGTDFTLKISRVEAEDVGVYYCFQGSHVPWTFGQGTKVEIK | 0.449 | 5.06e-05 | 113000 | 0.793 | 7.99e-05 | 101000
VRDN-02020 (antibody, V domains shown) VH: QVQLQESGPGLVKPSETLSLTCTVSGYSITGGYLWNWIRQPPGKGLEWIGYISYDGTNHYKPSLKDRVTISRDTSKNQFSLKLSSVTAADTAVYYCARYGRVFFDYWGQGTLVTVSS VL: DIVMTQSPLSLPVTPGEPASISCRSSQSIVHSNGNTYLQWYLQKPGQSPQLLIYKVSNRLYGVPDRFSGSGSGTDFTLKISRVEAEDVGVYYCFQGSHVPWTFGQGTKVEIK | 0.544 | 5.16e-05 | 94800 | 1.03 | 9.56e-05 | 93200
VRDN-02016 (antibody, V domains shown) VH: QVQLQESGPGLVKPSETLSLTCTVSGYSITGGYLWNWIRQPPGKGLEWIGYISYHGTNNYKPSLKDRVTISRDTSKNQFSLKLSSVTAADTAVYYCARYGRVFFDYWGQGTLVTVSS VL: DIVMTQSPLSLPVTPGEPASISCRSSQSIVHSNGNTYLQWYLQKPGQSPQLLIYKVSNRLYGVPDRFSGSGSGTDFTLKISRVEAEDVGVYYCFQGSHVPWTFGQGTKVEIK | 0.346 | 3.39e-05 | 98000 | 1.31 | 0.000111 | 84300
VRDN-02002 (antibody, V domains shown) VH: QVQLQESGPGLVKPSETLSLTCTVSGHSITGGYLWNWIRQPPGKGLEWIGYISYDGTNNYKPSLKDRVTISRDTSKNQFSLKLSSVTAADTAVYYCARYGRVFFDYWGQGTLVTVSS VL: DIVMTQSPLSLPVTPGEPASISCRSSQSIVHSNGNTYLQWYLQKPGQSPQLLIYKVSNRLYGVPDRFSGSGSGTDFTLKISRVEAEDVGVYYCFQGSHVPWTFGQGTKVEIK | 0.992 | 0.000104 | 105000 | 1.11 | 9.22e-05 | 83000
VRDN-02001 (antibody, V domains shown) VH: QVQLQESGPGLVKPSETLSLTCTVSHYSITGGYLWNWIRQPPGKGLEWIGYISYDGTNNYKPSLKDRVTISRDTSKNQFSLKLSSVTAADTAVYYCARYGRVFFDYWGQGTLVTVSS VL: DIVMTQSPLSLPVTPGEPASISCRSSQSIVHSNGNTYLQWYLQKPGQSPQLLIYKVSNRLYGVPDRFSGSGSGTDFTLKISRVEAEDVGVYYCFQGSHVPWTFGQGTKVEIK | 0.495 | 5.1e-05 | 103000 | 1.2 | 0.000115 | 96000
